According to article PMC4209899:

Tested on: Ifit1
Assay: filter binding
Details: 5' cap 0 (N-7 methylguanosine)

Substance G3 VEEV TRD 5'-UTR RNA, cap 0 has a Kd of 91 nM.
